{"source": "paper PMC8458453", "target": "human Rab7 Q67L (residues 2–195), GTP-loaded (human) (UniProt P51149)", "sequence (P51149 2-195 Q67L)": "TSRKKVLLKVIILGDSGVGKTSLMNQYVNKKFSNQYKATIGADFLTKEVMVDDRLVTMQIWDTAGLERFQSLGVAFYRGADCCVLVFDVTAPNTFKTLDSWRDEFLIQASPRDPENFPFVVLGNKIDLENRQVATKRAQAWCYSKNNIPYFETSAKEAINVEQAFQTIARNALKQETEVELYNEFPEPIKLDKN", "assay": "crystal structure; purified PDZD8 CC and Rab7 Q67L (1 mM GTP) mixed 1:1 at total 10 mg/ml, incubated 1 h at room temperature; crystals in 0.1 M Tris-HCl pH 8.0, 25% PEG 1000, 0.1 M NaCl; space group P6(5), 2.1 Å", "data": [{"substance": "human PDZD8 C-terminal coiled-coil (CC) domain, residues 994–1123 (crystallisation construct) (from UniProt Q8NEN9 994-1123) (domain or fragment)", "values": [{"measurement": "stoichiometry N (Rab7 per PDZD8 CC)", "value": 2}]}]}
